Consider 19 sequences from the DeepSol protein solubility set.

This series is described as follows: soluble on expression in E. coli; label from the status in PepcDB or PDB records.
Take “METEVMKSFNNELSSLFDSKNMSKNKIQDITKAAIKAKSQYKHVVFSVEKLINKCKPDQRLNVLYVIDSIVRASKHQLKEKDTFGPRFMKQFDKFLMPLLKCGQKEKMRTVRTLNLWMSNKVFKESEIQPLREMCKASGLTIDFEEVELAVKGKQADMSIYSGVYKKKPKRSSSSSQPKSRTPTNPHPDDGLLGAGPSSALRSVPDIPNFVLSEDYFLGTISEREMLELVQKFGIDRSGVLSKDKNLLQRALQIFAGSLSQKVEEVLAENNRINGSSIQNVLTKDFEYSDDEEEKEKEPQPEKQKNLPHAQVLLLAQSLLTQPQILAKLAEVLIPQGNPFGLPFPGEHIVPTSSAALTLGAPPPNLMALQQSLPPGFPNQQLGLPNLSGLNQAQLMNVQNAQNMLQLQQRAAQLQALQGNPNAQRNLLMLGNPLLNPFALQHGVNPMLNDLQAAAAAQQQAMLNEAAQSPEKKILELSGGNSGINNSGDVERARLREKEKERESKERRRMGLPPVRIGFTIIASRTLWLKKIPTNIVENDLKQAVESCGEASRVKVIGNRACAYITMENRRSANDVVSKMREVSVAKKMVKVYWARSPGMDSDQFSDLWDSNRGVLEIPYEKLPLDLVALCEGAMLDIESLPIEKKLLYKETGETVISIPPPNIQPPVPHPPPMGFPFQHQLTQLPGQPRPAGLPPGVPPMFNLNAPPPPGIPGYPPAPPPPGVGPPPPQGIPPMGFDPNKPPPPMFQQGFNAGAPPPPFGRGAGPMSSFPPPPRGGMHHMPPPPSFRGGRGGHGGPPPPHFDRRGGGGPPFRPENGRGRLLDQSEMWNREQREMRGGGGAGRDGGREHRDYDRDRSQIDRRRQDDMGARRRSRWGDDDRRDDDRRDDRRDDRRESRRRSPRSPRSPDRRTRRSPSYEREEPPVKKTSVEEETVSSTTLDELKPSVEPTPVPAPIPAPAPELKAAEEPVKIVAEHHEDQTDEVPMDLE”: the “soluble on expression in E. coli” value is recorded as “not soluble”.

As to “MAHHHHHHMASGCLKYASVDDFIAKCILSRDPYQPEFTQAVREVMTSLWPFLQKNPKYTQDGLLERIVEPERVIQFRVPWVDDKGVTHVNRAFRVQFNSAIGPYKGGMRFHPSVNLSILKFLGFEQTFKNSLTTLPMGGGKGGADFDPKGKSDCEVMRFCQSLVAELYRHIGADTDVPAGDIGVGSREVGYMNGMYWKLRNTNECTFTGKGLAFQGSAIRPEATGYGLVYFVQSMLTHVNDSLEGKTVLVSGSGNVAQYAIEKCMELGAKVITASDSKGYIQDPSGFDKVKLAKLMKLKNECRGTLEEYARETGVTYVPGKRPWCVKADIALPCATQNEIEGADAKTMLTNGVKLVAEGANMPTTEEATEIFQKAGVLFAPGKASNAGGVAISGLEMSQNAARLVWDAEEVDSRLRSIMSSIHDSCVQYGEKDGKVSYVDGANIAGFACFLRRRTFATRVSPVHQVLCT”, the “soluble on expression in E. coli” value is on record as “soluble”.

“MPSYKLTYFFFRGLGEPIRLLFHLAGVQFEEVRMNPDQTWLDIKDSTPMKQLPVLNIDGFELPQSGAILRYLARKFGFAGKTPEEEAWVDAVHDLFKDFLAEFKKFAAERRSGKSAEEVEKFRSEFFLPARNTYFNILNGLLEKSNSGFLIGSDITFADLVVVDNLLTLKNYGLFDESEFTKLAALREKVNSYPGIKEYIAKRPVTEY”: the “soluble on expression in E. coli” value is “soluble”.

On to “MSLTERLSPVEIMGALVAFPTVSRDTNLPLVDWVETYLAGHGITAHRWVDPEQPHKAALFAHVGPWEEGAVVLSGHTDVVPIDGQPWDSDPFTVVERDGKYFGRGTCDMKGFDALAIWALVEGRYRDLKRPLQLALSFDEEVGCTGAPPMIVEMQNHLPKGSAVIVGEPSMMQAVTGHKGGFGYDTRVLGFEVHSSIMHTGVNAIMAAAPLIDWANHRNAENRAATPSALAAMFDPPWTTCHVGMISGGTAHNITAKECRFAMDFRIVPGEAKERWRDAYFAVAREVEAQMQAVHPEARIDLSEQFHVPPLVPEQEGEAEMLVRALTGDNAGHVVSYGTEAGQFQEAGYSAVICGPGDIAQAHQPNEFITVAQFDAGHGFMARLLDRLSEGHHHHHH”, for which the “soluble on expression in E. coli” value is given as “soluble”.

Take “MYPIKIIYVYKAMLDKVIDKAGGVLTEAYGDVVKPVLKPIGEVLGFLPRSIKCLLQGWEKWIINGEESIRLTSEAIRKKIEATPAERLTEPEPYVVVPAIQQLGYSHSSEELRELYANLIVSSMDVEKKGLVHPAFVDILKKLTPDEAKIIQYFKGRDFIEYLDLRAYIKEEEGGGFRTIADHKTLLSDEVNFFMPDNELAYLQNLVCLGILKDCEGTFTVIEDNYKLIENKLGLESLRNQYVPEQFSSIRSEKSFYQVTDFGRNFINTVTE”: the “soluble on expression in E. coli” value is reported as “not soluble”.

In the case of “MAGQIRMSPEELKSKATRYGQGANQIEDILRQLQNLQNELRGEWEGRAFEGFDQQFNQLKPKVQNFAQLLQEINMQLNKTAEAVARHDEDLSRNFGLQ”, the “soluble on expression in E. coli” value is “not soluble”.

With “MAHQEHFQFGYRRHRDQDRQDPARHPVVVVGAGPVGLSLAIDLAQRGQNVVLLDDADRIGEGSRAICFSKRALEVWDRLGVGAQMVEKGVVWQVGKIFRRDEMVYRFDLLPETGHKMPAFINLQQYYAEAFLVGRVQQLPQIDLRWRNKVTALAQHNDHAELTIETPDGPYRLAADYVIACDGARSSLRGMVGAEFAGEVFEDQFLIADVKMTAAFPTERWFWFDPPFHSGQSALLHRQPDDVWRIDLQIGPEADAAVERQPERVRPRIERMLGHGDFSFEWISIYKFQCRRMQRFLHERVIFAGDSAHQVSPFGARGANSGLEDGENLAWKLDLVLRGQAPASLLDSYDIERSQAADDNIRHSTRSTDFIAPHSKQERRLRDAVLALAHDVEFAKRMVNAGRLSTPSVYQSSLSTDDVDVWSSGPVPGAAMRDAPLRAADGTLVYLTEAFMQAGGGFVLLERANGAAAPVPQGVRSLRIGGDAPLRDDEGVFAARYDATPGAAYLLRPDGYVAARFRHPTQAAVDAALARACGRLEHHHHHH”, the “soluble on expression in E. coli” value is “not soluble”.

With “MSLSDLITLAQLSQGYRYNSDSLILADFILKQGIKGAVFDVGAGCGIIGILLKKNIANLSLSLIDIQKENIELIEKNLKSNKIQGDIFHDDFNQFQIIKKFDFIVCNPPFYRQGAYKSEDQHKAISKFQEFLPLHSFLAKTNSMLKPNGTLYFCYEALALDEICFILKDMKMKITKLCFVHTHQSKKARLVLIQVKKGSKSPCEILPPFFVYENEILSKQMQEIHLRFRLKSYDEGHHHHHH”, the “soluble on expression in E. coli” value was “soluble”.

In the case of “MSLRMNAMKIISVNVGQPTALQVGQRTAVSGIRKHPVPGRVQVGEKGLEGDHVLNRRYHGGPDQAVYVYTREDYDHWTELLGRALEPGAFGENVLISGAESAEVRVGERFLLGAVEIEVTAPRLPCSTLGARMEDAGFVKRFKAARRPGFYARVLQSGDIGRGDPVTRTPAPDGAPTIGELFDADFAKSHDPAELRAWLTFPLGKRQRKEVEKWLAKAEGEGHHHHHH”, the “soluble on expression in E. coli” value is listed as “soluble”.

Consider “MGSDKIHHHHHHMQILTIDVGGTTALFELQLAGHTEQYKIPTGEGFKIEELNNQIAALERDYDLQDYQLAIGVPGLVQNNRLVACKSLPGLNGLSFDTVKTQGELKFICNDMDAGMQATCDAKYACELLVMCGTGIGMSIAFNGQAFTGATGVAGELGHCRVMTESGEFSLEQLASGDSVRSRNITTQDDLYRAGSYLGMGLAWTVNLFNPNRIWLAGNMMNSAPYYKGCLESLKQMALSAPLAEMKINRVDDMETLVCRGLSAMLARDYPRA”, for which the “soluble on expression in E. coli” value is “not soluble”.

On to “GPGSMLTTTDVGGVVRRINVDYKKLKAAYDQNNDSLCLNLVNGLKKQLILLPTFLNPAAASATWLEEVTLTREVLEYAVLVSARLEDLASFELYFNQLSVYYTDIDPTKLEESPLYSLILGLNLVRLLVDDRIAQFHTELEKVPNHIYAPNAYVRFAVLLERYLMEGSYSKLLNSRDQAPSKEYIPIVGMLEKTVRQGVAECIPHSYAKLSFERAQKILMVDSTDAVREIGKQYEWELGKDGASFVFTRREDIAKREVPFQEMLGHHLNFAADLQRIV”, for which the “soluble on expression in E. coli” value was “soluble”.

For “MTELARLKFYATQPHSCSYLPDEQATTLFLDPSQPMDVHVYADLSEMGFRRSGDHLYRPHCQNCNACVPARIPATQFLPSRQQKRIIKRNSDLTVHAAKPCFSEEYFDLYQRYIEQRHADGDMFPPSRDQFSTFLVRDLPFSRFYEFRLDGRLLAVAVTDLLPNGLSAVYTFYEPDEERRSLGRFAILWQIGETLRLGLDAVYLGYWIKNCKKMNYKTQYRPIELLVNQRWVILNLEHHHHHH”, the “soluble on expression in E. coli” value was “not soluble”.

With “MTNLTFYAKIGISEEEHDSFVKEHQQISVLQGSDWAKIKNQWQNERIGIYKEEKQVASLSLLIKLLPLGRSIIYIPRGPVMDYLDRDLVAFTMKTLKDYGKTKKALFIKYDPAILLKQYALGQEEEEKPLALAAIKNLQEAGVHWTGLTMEIADSIQPRFQANIYTQENLEMQFPKHTRRLIKDAKQRGVKTYRVSQSELHKFSKIVSLTEKRKNISLRNEAYFQKLMTTYGDKAYLHLAKVNIPQKLDQYRQQLILINQDITRTQAHQKKRLKKLEDQKASLERYITEFEGFTDQYPEEVVVAGILSISYGNVMEMLYAGMNDDFKKFYPQYLLYPNVFQDAYQDGIIWANMGGVEGSLDDGLTKFKANFAPTIEEFIGEFNLPVSPLYHIANTMYKIRKQLKNKH”, the “soluble on expression in E. coli” value is reported as “not soluble”.

Regarding “GWLDLAPSTQVDTETSINVLSDIEFTLNGIYSTMQSSDAYSGRLVYYGDVTGDDMQAVSSTKRTGNYYRFNFTKDNGPSSHWSYLYSIIQNCNLILMNVDKLSIDEDETEYKNDLKGQALAIRGMALFDLTRIFGYPYLKDNGASLGVPIVKELSTIDSKPARNTVAECYTEIISDLKNSTELLSGDFNKGKVNRWAAMTLLSRVYLYKGEYNEALTMAENAIKGAEKEGYALWTNEEYPTAWGNDASASNPGEILFEIVNLTTDSPGKESMGYLNSYNGYDDMCITCSFYQLLKKDPKDVRLKILSFDKKYYAYVNKYQPQQGENITDANIPLIRLSEAYLNAAEAAVQTGDNAKAVKYLNSIVQRANPENSVEGKTLTLENVLDERRKELVAEGHRMYDVIRNGMTVKRIDVKDSDINKTKHNTAYMEYDWNFHKILLPIPKKEMDANPNMKQNPGYVD”, the “soluble on expression in E. coli” value was “soluble”.

As for “DEPKVLIAEVVVEGATPELEQLVYQVISTRPGSTTTRTQLQQDTNAIFATGFFADVNAVPRDTPLGVRITFVVRPYPVLRAVQVAGNQVLTQEKVNEIFAPQIGRTLNLRELQAGIEKINTFYRDNGYILGQVVGTPQVDPDGVVTLQVAEGVVEQVTYRFLNKEGEPTKQRTRDFVISREMDTQPGVVLNQKTVQADLRRLFELGLFEDVQVALEPGQNPRRVNLILNIKERNT”, the “soluble on expression in E. coli” value is recorded as “soluble”.

As for “MKLLSSIEQACDICRLKKLKCSKEKPKCAKCLKNNWECRYSPKTKRSPLTRAHLTEVESRLERLEF”, the “soluble on expression in E. coli” value is given as “soluble”.

“MSLTTFATEWEKQLELYPEEYRKAYRRVKRASEILLREPEPQVGLTPKEVIWTKNKTKLYRYIPKQEKTQRVPILLIYALINKPYIMDLTPGNSLVEYLVDRGFDVYMLDWGTFGLEDSHLKFDDFVFDYIAKAVKKVMRTAKSDEEGHHHHHH”: the “soluble on expression in E. coli” value is “not soluble”.

For “MGSDKIHHHHHHMNIQEAFNAAAVDYDSLRRILIPCFDDFYKTAVEIIPIERTAPIKVLDLGAGTGLYSGMVQSVFPNAELTLLDLAPEMLEKAKLRFSKMGKSPKILIGDYVETNLDDSYDLIISALSIHHLSDFDKELLYQRIYNFLNPGGIFVNADQVLGKTPDLEELYRQHWLDSVRAKGISEEDLKAAQKRMEYDRMATLEIQLHWLEAAGFQNVDCWYKNFSFAVFGGYRPTI”, the “soluble on expression in E. coli” value is given as “not soluble”.

In the case of “MGSDKIHHHHHHMGGCCSQEGCNTRPRYLPLKCYPGLPMRATRRLDLSAVERALREVQGRFAELSQHFTEPRDPFTDEVLLNVVEGYALIDDYVARGIDLFDLQQLNLMLEINATVLCGSDPARRLEFAPHLAATEAHFFNNVEGGIKDLYNWYCAYRSDSIWKRAAGVYVRILSKPQLFIEGNNRTGSLIVSYLLMRAGLPPFVLSLDNAEGYFNPSSVIRNSAKHGVKALYELPKIKKKYAAFLEAKAPEPGKFFLNGTPVPACEGSR”, the “soluble on expression in E. coli” value was “not soluble”.
